For two substances, Kd results are on record in patent publication US20250195677A1.

This assay concerns the target recombinant His-tagged cynomolgus PD-1 (Acro Biosystems) (cynomolgus) (UniProt B0LAJ3). Nature of the assay: SPR Carterra LSA, antibody coupled.

Chain of recombinant His-tagged cynomolgus PD-1 (Acro Biosystems) (cynomolgus) (B0LAJ3 entry or part of it limits assumed): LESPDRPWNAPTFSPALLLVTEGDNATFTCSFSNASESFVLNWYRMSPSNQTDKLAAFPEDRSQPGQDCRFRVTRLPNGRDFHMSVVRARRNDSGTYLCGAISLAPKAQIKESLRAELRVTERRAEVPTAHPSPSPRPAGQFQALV

For OPDIVO® (nivolumab) (antibody), the dissociation constant Kd (commonly the concentration at which binding is half-saturated) turned out to be 6.4 nM.
For KEYTRUDA® (pembrolizumab) (antibody), the Kd was found to be 0.575 nM.
